How the values were obtained:
[1] = target: ZTNF4 (BLyS/BAFF) (human); test: competition, 125I-ZTNF4 binding to TACI-coated plates
[2] = target: ZTNF4 (BLyS/BAFF) (human); test: other, solution radioligand binding with precipitation

IC50 [1]	Kd [2]	Binder
2.31 nM	0.115 nM	TACI (d1-29, d111-154)-Fc5 (protein) MDAMKRGLCCVLLLCGAVFVSLSQEIHAELRRFRRAMRSCPEEQYWDPLLGTCMSCKTICNHQSQRTCAAFCRSLSCRKEQGKFYDHLLRDCISCASICGQHPKQCAYFCENKLRSEPKSSDKTHTCPPCPAPEAEGAPSVFLFPPKPKDTLMISRTPEVTCVVVDVSHEDPEVKFNWYVDGVEVHNAKTKPREEQYNSTYRVVSVLTVLHQDWLNGKEYKCKVSNKALPSSIEKTISKAKGQPREPQVYTLPPSRDELTKNQVSLTCLVKGFYPSDIAVEWESNGQPENNYKTTPPVLDSDGSFFLYSKLTVDKSRWQQGNVFSCSVMHEALHNHYTQKSLSLSPGK
2.07 nM	0.134 nM	TACI (d1-29)-Fc5 (protein) MDAMKRGLCCVLLLCGAVFVSLSQEIHAELRRFRRAMRSCPEEQYWDPLLGTCMSCKTICNHQSQRTCAAFCRSLSCRKEQGKFYDHLLRDCISCASICGQHPKQCAYFCENKLRSPVNLPPELRRQRSGEVENNSDNSGRYQGLEHRGSEASPALPGLKEPKSSDKTHTCPPCPAPEAEGAPSVFLFPPKPKDTLMISRTPEVTCVVVDVSHEDPEVKFNWYVDGVEVHNAKTKPREEQYNSTYRVVSVLTVLHQDWLNGKEYKCKVSNKALPSSIEKTISKAKGQPREPQVYTLPPSRDELTKNQVSLTCLVKGFYPSDIAVEWESNGQPENNYKTTPPVLDSDGSFFLYSKLTVDKSRWQQGNVFSCSVMHEALHNHYTQKSLSLSPGK
4.95 nM	0.121 nM	TACI (d1-29, d107-154)-Fc5 (protein) MDAMKRGLCCVLLLCGAVFVSLSQEIHAELRRFRRAMRSCPEEQYWDPLLGTCMSCKTICNHQSQRTCAAFCRSLSCRKEQGKFYDHLLRDCISCASICGQHPKQCAYFCENEPKSSDKTHTCPPCPAPEAEGAPSVFLFPPKPKDTLMISRTPEVTCVVVDVSHEDPEVKFNWYVDGVEVHNAKTKPREEQYNSTYRVVSVLTVLHQDWLNGKEYKCKVSNKALPSSIEKTISKAKGQPREPQVYTLPPSRDELTKNQVSLTCLVKGFYPSDIAVEWESNGQPENNYKTTPPVLDSDGSFFLYSKLTVDKSRWQQGNVFSCSVMHEALHNHYTQKSLSLSPGK
2.21 nM	0.092 nM	TACI (d1-29, d120-154)-Fc5 (protein) MDAMKRGLCCVLLLCGAVFVSLSQEIHAELRRFRRAMRSCPEEQYWDPLLGTCMSCKTICNHQSQRTCAAFCRSLSCRKEQGKFYDHLLRDCISCASICGQHPKQCAYFCENKLRSPVNLPPELREPKSSDKTHTCPPCPAPEAEGAPSVFLFPPKPKDTLMISRTPEVTCVVVDVSHEDPEVKFNWYVDGVEVHNAKTKPREEQYNSTYRVVSVLTVLHQDWLNGKEYKCKVSNKALPSSIEKTISKAKGQPREPQVYTLPPSRDELTKNQVSLTCLVKGFYPSDIAVEWESNGQPENNYKTTPPVLDSDGSFFLYSKLTVDKSRWQQGNVFSCSVMHEALHNHYTQKSLSLSPGK

— patent US20090209006 (published 2009)
